In test [1] the target is clade A/E 93TH057-derived gp120 core (HIV-1 clade A/E strain 93TH057).
The target in test [2] is HIV-1 YU-2 Env (gp120) mutant N280D (HIV-1 strain YU-2) (UniProt P35961).
Test [3] deals with HIV-1 YU-2 Env (gp120) mutant N280Y (HIV-1 strain YU-2) (UniProt P35961).
Test [4] concerns the target HIV-1 YU-2 Env (gp120) mutant A281T (HIV-1 strain YU-2) (UniProt P35961).
The target of test [5] is HIV-1 YU-2 Env (gp120) mutant N280Y (HIV-1 strain YU-2) (UniProt P35961). This is another data set of the same source.
Test [6] concerns the target HIV-1 YU-2 Env (gp120) mutant A281S (HIV-1 strain YU-2) (UniProt P35961).
The target in test [7] is HIV-1 YU-2 Env (gp120) mutant N276S (HIV-1 strain YU-2) (UniProt P35961).
Test [8] deals with HIV-1 YU-2 Env (gp120) mutant T278A (HIV-1 strain YU-2) (UniProt P35961).
Test [9] has as its target HIV-1 YU-2 Env (gp120) mutant A281T (HIV-1 strain YU-2) (UniProt P35961). The test is described as follows: cell-based or functional assay.
For test [10], the target named is HIV-1 YU-2 Env (gp120) mutant N279K (HIV-1 strain YU-2) (UniProt P35961).
For test [11] the target is unchanged. This is another data set of the same source.
The target in test [12] is HIV-1 YU-2 Env (gp120) mutant N280D (HIV-1 strain YU-2) (UniProt P35961). The source holds these as a separate data set.

From patent US20140017234A1 come the findings set out here.

Several values for one entry are separate records, joined by “and”; a condition that tells them apart may be missing. Identical values can stand only once. Like-named read-outs stand apart in the source and are kept apart here.

Take “45-46m2 Fab (NIH45-46 with G54W in the heavy chain and S28Y in the light chain)”: in test [1], the dissociation constant Kd is 0.051 µM and 0.057 µM.
Take “45-46m2 IgG (NIH45-46 with G54W in the heavy chain and S28Y in the light chain) (antibody)”: the IC50 (pseudovirus neutralization, TZM-bl cells) in test [2] is 0.435 µg/mL; in test [3], 2.23 µg/mL; in test [5], 2.23 µg/mL; in the test with YU-2^N279H (HIV-1), 0.452 µg/mL. In test [4], this substance showed an IC50 (pseudovirus neutralization, TZM-bl cells), first of the two values given of 0.1 µg/mL. In test [4], this substance displayed an IC50 (pseudovirus neutralization, TZM-bl cells), second of the two values given greater than 50 µg/mL. In addition, the IC50 (read off the curve) in test [6] came out at 0.01 µg/mL. Moreover, the IC50 (pseudovirus neutralization) in [7] was 0.006 µg/mL; in test [8], 0.001 µg/mL. In test [9], the plateau of the in vitro neutralization curve came out at 50%.
“45-46m7 IgG (45-46m2 + HC W47V) (antibody)”: the IC50 (pseudovirus neutralization, TZM-bl cells) in [10] turned out to be 2.41 µg/mL; in test [2], 0.139 µg/mL; in test [11] it was 2.41 µg/mL; with YU-2^N279H (HIV-1) it was 0.245 µg/mL. This substance had an IC50 (pseudovirus neutralization, TZM-bl cells), first of the two values given in test [4] of 0.1 µg/mL. The substance also showed an IC50 (pseudovirus neutralization, TZM-bl cells), second of the two values given in [4] greater than 50 µg/mL. In test [6], this substance came in with an IC50 (read off the curve) of 0.01 µg/mL. Moreover, the IC50 (pseudovirus neutralization) in test [7] worked out at 0.003 µg/mL; in test [8], 0.001 µg/mL. The substance further returned a plateau of the in vitro neutralization curve in test [9] of 50%.
“45-46m25 IgG (45-46m2 + HC W47I) (antibody)” yielded an IC50 (pseudovirus neutralization, TZM-bl cells) in test [10] of 2.59 µg/mL. The IC50 (pseudovirus neutralization, TZM-bl cells) in test [2] worked out at 0.19 µg/mL. Further, in test [4], the IC50 (pseudovirus neutralization, TZM-bl cells), first of the two values given stood at 0.1 µg/mL and the IC50 (pseudovirus neutralization, TZM-bl cells), second of the two values given is greater than 50 µg/mL.
“45-46m28 IgG (45-46m2 + HC W47T) (antibody)” yielded an IC50 (pseudovirus neutralization, TZM-bl cells) in test [10] of 0.652 µg/mL. Also, in [4], the IC50 (pseudovirus neutralization, TZM-bl cells), first of the two values given amounted to 0.1 µg/mL and the IC50 (pseudovirus neutralization, TZM-bl cells), second of the two values given is greater than 50 µg/mL. In addition, in test [11], the IC50 (pseudovirus neutralization, TZM-bl cells) amounted to 0.65 µg/mL.
For NIH45-46 Fab, the dissociation constant (Kd) in test [1] was 0.221 µM and 0.178 µM.
Consider NIH45-46^G54W Fab, for which the dissociation constant (Kd) in test [1] is 0.062 µM and 0.072 µM.
In turn, NIH45-46^G54W IgG (antibody) showed an IC50 (pseudovirus neutralization, TZM-bl cells), first of the two values given in [4] of 0.1 µg/mL. Also, the IC50 (pseudovirus neutralization, TZM-bl cells), second of the two values given in test [4] is greater than 50 µg/mL. Besides, the IC50 (pseudovirus neutralization, TZM-bl cells) in test [11] is greater than 50 µg/mL; in [12], greater than 50 µg/mL; in [5], greater than 50 µg/mL; with YU-2^N279H (HIV-1), greater than 50 µg/mL; with YU-2^R456W (HIV-1), 5.67 µg/mL. The IC50 (pseudovirus neutralization) in test [7] is 0.004 µg/mL; in [8] it was 0.001 µg/mL.

What is called Kd is the free concentration of one partner at which half of the binding sites on the other are occupied at equilibrium, for simple one-to-one binding. A higher Kd goes with lower affinity.
